Assay results taken from paper PMC12501291, “Cancer-associated fibroblasts expressing FSTL3 promote vasculogenic mimicry formation and drive colon cancer malignancy” (Cell Death & Disease, 2025).

Target: T1, FSTL3-FC (biotin) (UniProt O95633, biotin)
T1 construct: FSTL3 gene fused with a human Fc fragment in pCDNA3.4; also called biotinylated FSTL3-FC; source: 293F cells, transfected, purified (Protein A), biotinylated, ultrafiltration; made by SGE BIOTECH
Experiment: ELISA; sandwich ELISA with biotinylated FSTL3-FC, aFSTL3 and Activin A-mFC; in vitro
Settings: both partners purified

T1 sequence (O95633 27-263): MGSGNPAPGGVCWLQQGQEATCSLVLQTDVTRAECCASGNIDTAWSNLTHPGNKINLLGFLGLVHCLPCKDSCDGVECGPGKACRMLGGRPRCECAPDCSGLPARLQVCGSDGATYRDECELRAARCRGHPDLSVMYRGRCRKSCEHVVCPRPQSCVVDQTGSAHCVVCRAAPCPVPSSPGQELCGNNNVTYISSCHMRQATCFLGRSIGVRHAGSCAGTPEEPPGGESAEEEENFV

binding result: binds
B1: FSTL3-targeting antibodies (aFSTL3) (antibody, V domains shown)
VH: EVQLQQSAAELARPGASVKMSCKASGYSFTTYTMHWVKQRPGQGLEWIGYIHPSSGYTDHIQKFKDKTILTADKSSSTAYMQLNSLTSEDSAVYYCARLDYGYWGQGTTLTVSS
VL: DILMTQTPLSLPVSLGDQASISCRSSQSIVHSNGNTYLEWYLQKPGQSPKLLIYKVSNRFSGVPDRFTGSGSGTDFTLKISRVEAADLGVYYCFQSSHIPPTFGGGTKLEIK
notes: cloned into the PTT5-human IgG1 CH vector; cloned into the PTT5-human kappa CL vector; Human IgG1 CH, human kappa CL; source: 293F cells, transfected, purified (Protein A); made by SGE BIOTECH
